Target: the molecule itself
Test: cross-linking; in vivo: intact living N. gonorrhoeae (WT or Δlaz, grown under standard aerobic conditions) in PBS with 0, 0.1, 0.25 or 0.4 mM DSP, 37°C, 5% CO2, 30 min; quenched with 50 mM Tris-HCl pH 8.0; SDS-PAGE without reducing agent at 4°C; immunoblot with anti-BamA, anti-AniA or anti-Laz antiserum

B1: Nitrite reductase AniA of Neisseria gonorrhoeae FA1090, endogenous in living gonococci (enzyme)
chain: CGGEQAAQAPAETPAASAEAASSAAQATAETPAGELPVIDAVTTHAPEVPPAIDRDYPAKVRVKMETVEKTMKMDDGVEYRYWTFDGDVPGRMIRVREGDTVEVEFSNNPSSTVPHNVDFHAATGQGGGAAATFTAPGRTSTFSFKALQPGLYIYHCAVAPVGMHIANGMYGLILVEPKEGLPKVDKEFYIVQGDFYTKGKKGAQGLQPFDMDKAVAEQPEYVVFNGHVGSIAGDNALKAKAGETVRMYVGNGGPNLVSSFHVIGEIFDKVYVEGGKLINENVQSTIVPAGGSAIVEFKVDIPGSYTLVDHSIFRAFNKGALGQLKVEGAENPEIMTQKLSDTAYAGSGAASAPAASAPAASAPAASASEKSVY
notes: source: endogenous, living N. gonorrhoeae FA1090 (WT and Δlaz) cells
stoichiometry N: 3

— paper PMC6277709, “Lipid-Modified Azurin of Neisseria gonorrhoeae Is Not Surface Exposed and Does Not Interact With the Nitrite Reductase AniA” (Frontiers in Microbiology, 2018)
